Where a chain is given by its changes, count along the chain named.
Columns and labels:
Test in all cases: SPR; reducing conditions: 2 mM TCEP in the SPR running buffer, immobilised PBP1B versions incubated in it for 30 min before the assay; LpoB injected from 19.5 nM to 10 μM; apparent KD
Conditions in all cases: both partners purified
[1] = molecular target: T1, PBP1B^Δ158–160 (E. coli, UniProt P02919 46-844, Δ158–160)
T1 construct: PBP1B, E. coli, residues 46-844 with residues 158-160 of Loop 1 removed, made by mutagenesis of pDML924; also called Loop 1 truncation; source: E. coli BL21(DE3), purified (membrane extract, HisTrap, thrombin, HiTrap SP ion exchange)
T1 sequence (looked up): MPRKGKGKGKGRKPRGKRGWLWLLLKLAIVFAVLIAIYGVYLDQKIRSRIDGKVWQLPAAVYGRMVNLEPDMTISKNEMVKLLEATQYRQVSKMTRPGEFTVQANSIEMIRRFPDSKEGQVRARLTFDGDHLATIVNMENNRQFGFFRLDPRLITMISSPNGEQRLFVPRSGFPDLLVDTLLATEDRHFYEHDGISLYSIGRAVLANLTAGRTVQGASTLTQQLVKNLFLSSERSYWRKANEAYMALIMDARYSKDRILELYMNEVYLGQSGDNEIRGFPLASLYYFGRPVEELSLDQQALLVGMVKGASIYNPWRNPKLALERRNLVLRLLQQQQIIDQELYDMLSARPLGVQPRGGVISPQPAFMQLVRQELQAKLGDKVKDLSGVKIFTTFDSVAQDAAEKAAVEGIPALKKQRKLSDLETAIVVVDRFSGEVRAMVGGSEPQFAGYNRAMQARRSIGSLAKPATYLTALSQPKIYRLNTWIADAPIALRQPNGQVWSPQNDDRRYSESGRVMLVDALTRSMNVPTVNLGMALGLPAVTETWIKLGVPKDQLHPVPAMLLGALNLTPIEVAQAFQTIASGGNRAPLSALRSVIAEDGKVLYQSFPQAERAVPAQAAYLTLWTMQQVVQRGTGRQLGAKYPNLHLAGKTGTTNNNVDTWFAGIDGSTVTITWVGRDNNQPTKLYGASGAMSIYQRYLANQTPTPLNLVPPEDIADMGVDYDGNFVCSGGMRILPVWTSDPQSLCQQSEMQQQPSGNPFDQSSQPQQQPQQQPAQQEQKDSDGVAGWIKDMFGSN

[2] = molecular target: T2, PBP1B D160C/K437C (E. coli, UniProt P02919 46-844, D160C | K437C)
T2 construct: PBP1B, E. coli, residues 46-844, made by mutagenesis of pDML924; Disulphide bridge between C160 and C437 (no free thiol groups detected); reduced in the SPR assay with 2 mM TCEP; source: E. coli BL21(DE3), purified (membrane extract, HisTrap, thrombin, HiTrap SP ion exchange)
T2 sequence (looked up): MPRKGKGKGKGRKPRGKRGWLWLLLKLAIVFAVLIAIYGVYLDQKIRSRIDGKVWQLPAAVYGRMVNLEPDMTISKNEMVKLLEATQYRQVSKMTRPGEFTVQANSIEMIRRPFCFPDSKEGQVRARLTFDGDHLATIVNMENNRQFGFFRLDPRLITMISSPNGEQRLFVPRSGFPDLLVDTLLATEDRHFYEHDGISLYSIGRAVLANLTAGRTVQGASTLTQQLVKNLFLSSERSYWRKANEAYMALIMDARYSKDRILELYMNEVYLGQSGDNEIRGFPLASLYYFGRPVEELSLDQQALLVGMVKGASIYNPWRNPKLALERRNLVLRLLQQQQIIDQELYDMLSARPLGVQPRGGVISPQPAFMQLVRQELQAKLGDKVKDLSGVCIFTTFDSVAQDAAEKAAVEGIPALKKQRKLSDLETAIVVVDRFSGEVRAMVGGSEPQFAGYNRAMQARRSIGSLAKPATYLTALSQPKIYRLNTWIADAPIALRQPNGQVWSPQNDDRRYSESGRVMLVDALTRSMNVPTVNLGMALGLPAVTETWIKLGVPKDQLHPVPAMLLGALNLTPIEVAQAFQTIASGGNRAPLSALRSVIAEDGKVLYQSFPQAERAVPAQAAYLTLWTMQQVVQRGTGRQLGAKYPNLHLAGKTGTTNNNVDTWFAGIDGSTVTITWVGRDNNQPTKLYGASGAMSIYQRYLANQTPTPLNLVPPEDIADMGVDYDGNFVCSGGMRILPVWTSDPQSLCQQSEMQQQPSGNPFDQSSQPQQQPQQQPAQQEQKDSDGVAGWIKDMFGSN

[3] = molecular target: T3, PBP1B R157A (E. coli, UniProt P02919 46-844, R157A)
T3 construct: PBP1B, E. coli, residues 46-844, made by mutagenesis of pDML924; source: E. coli BL21(DE3), purified (membrane extract, HisTrap, thrombin, HiTrap SP ion exchange)
T3 sequence (looked up): T2 sequence (looked up) with R112A, C115D, C392K

- Kd [1]: 1700 nM
- Kd [2]: 2040 nM
- Kd [3]: 357 nM
B1: LpoB (natural protein, E. coli)
chain: VGQREPAPVEEVKPAPEQPAEPQQPVPTVPSVPTIPQQPGPIEHEDQTAPPAPHIRHYDWNGAMQPMVSKMLGADGVTAGSVLLVDSVNNRTNGSLNAAEATETLRNALANNGKFTLVSAQQLSMAKQQLGLSPQDSLGTRSKAIGIARNVGAHYVLYSSASGNVNAPTLQMQLMLVQTGEIIWSGKGAVSQQ
notes: LpoB, E. coli; also called lipoprotein LpoB; source: E. coli BL21(DE3), purified (HisTrap, Superdex 200), as in Egan et al. 2014

Reference: publication PMC6220978, “Induced conformational changes activate the peptidoglycan synthase PBP1B” (Molecular Microbiology, 2018)
